From patent US20250243279A1 (published 2025)

Legend:
MICB = target: T1, MICB (human, UniProt Q29980 23-383); assay: Carterra LSA SPR
T1 chain: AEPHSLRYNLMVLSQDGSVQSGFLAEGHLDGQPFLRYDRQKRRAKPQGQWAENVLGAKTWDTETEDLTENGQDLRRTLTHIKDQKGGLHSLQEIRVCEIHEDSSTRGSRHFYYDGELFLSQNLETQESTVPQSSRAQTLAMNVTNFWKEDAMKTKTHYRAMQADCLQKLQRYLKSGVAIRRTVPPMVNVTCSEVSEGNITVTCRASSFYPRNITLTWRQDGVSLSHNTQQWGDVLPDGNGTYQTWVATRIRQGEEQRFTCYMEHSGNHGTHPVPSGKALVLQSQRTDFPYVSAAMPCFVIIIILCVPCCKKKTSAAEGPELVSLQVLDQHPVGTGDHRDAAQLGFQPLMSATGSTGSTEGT

MICA = target: T2, MICA (human, UniProt Q29983 24-383); assay: Carterra LSA SPR
T2 chain: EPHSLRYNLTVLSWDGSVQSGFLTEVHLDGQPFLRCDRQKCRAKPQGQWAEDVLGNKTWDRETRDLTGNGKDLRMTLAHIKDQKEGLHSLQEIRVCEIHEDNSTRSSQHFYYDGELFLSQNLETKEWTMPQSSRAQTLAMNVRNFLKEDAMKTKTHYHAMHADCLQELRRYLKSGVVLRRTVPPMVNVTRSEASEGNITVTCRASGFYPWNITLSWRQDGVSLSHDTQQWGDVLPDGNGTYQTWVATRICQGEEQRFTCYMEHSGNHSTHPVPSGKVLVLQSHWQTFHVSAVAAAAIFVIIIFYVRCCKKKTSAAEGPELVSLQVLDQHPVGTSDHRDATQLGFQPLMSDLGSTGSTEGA

1H7 = assay: Carterra LSA SPR
1C8 = assay: Carterra LSA SPR
1A2 = assay: Carterra LSA SPR
1D7 = assay: Carterra LSA SPR
1D8 = assay: Carterra LSA SPR
1D9 = assay: Carterra LSA SPR
1E1 = assay: Carterra LSA SPR
1B6 = assay: Carterra LSA SPR
1B11-2 = assay: Carterra LSA SPR
CD16 = CD16 (UniProt P08637 17-208)
cynoMICA = assay: Carterra LSA SPR

CD16, sequence (P08637 17-208): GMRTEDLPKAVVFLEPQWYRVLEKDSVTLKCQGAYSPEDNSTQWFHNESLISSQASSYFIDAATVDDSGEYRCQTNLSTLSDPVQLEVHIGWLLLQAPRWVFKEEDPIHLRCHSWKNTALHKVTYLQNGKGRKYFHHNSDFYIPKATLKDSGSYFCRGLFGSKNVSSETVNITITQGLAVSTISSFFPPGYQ

B1: D103388_1C7 [MICA/B]_H0_D103388_1C7 [MICA/B]_L0 (antibody, V domains shown)
VH: QVQLRQSGPGLGQPSQSLSITCTVFGFSLTNYGVHWVRQSPGKGLEWLGMIWNDGFTDFNAAFISRLSISKDNSKSQVFFKMNSLQPSDTAIYYCASPYFHYAMDYWGQGTSVTVSS
VL: QIVLTQSPAIMSASLGERVTMTCTASSSVSSSYLHWYQQKPGSSPKLWIYSTSNLASGVPARFSGSGSGTSYSLTISSMEAEDAATYYCHQYHRSPFTFGSGTKLEIK
Q: With B1 as the binder, how does the Kd (MICB) read?
A: 2.27 nM

Q: What about the Kd (MICA) of the same binder?
A: 22.9 nM

B2: huMICB (ligand)
chain: AEPHSLRYNLMVLSQDGSVQSGFLAEGHLDGQPFLRYDRQKRRAKPQGQWAENVLGAKTWDTETEDLTENGQDLRRTLTHIKDQKGGLHSLQEIRVCEIHEDSSTRGSRHFYYDGELFLSQNLETQESTVPQSSRAQTLAMNVTNFWKEDAMKTKTHYRAMQADCLQKLQRYLKSGVAIRRTVPPMVNVTCSEVSEGNITVTCRASSFYPRNITLTWRQDGVSLSHNTQQWGDVLPDGNGTYQTWVATRIRQGEEQRFTCYMEHSGNHGTHPVPSGKALVLQSQRTDFPYVSAAMPCFVIIIILCVPCCKKKTSAAEGPELVSLQVLDQHPVGTGDHRDAAQLGFQPLMSATGSTGSTEGT
Q: B2 was tested. Which Kd (1H7) did it give?
A: 254 nM

Q: What about the Kd (1C8) of the same binder?
A: 7.72 nM

Q: What about the Kd (1A2) of the same binder?
A: 0.181 nM

Q: What about the Kd (1D7) of the same binder?
A: 1.47 nM

Q: And the Kd (1D8)?
A: 4.5 nM

Q: What about the Kd (1D9) of the same binder?
A: 0.453 nM

Q: What about the Kd (1E1) of the same binder?
A: 2.23 nM

Q: What about the Kd (1B6) of the same binder?
A: 1.05 nM

Q: And the Kd (1B11-2)?
A: 1.11 nM

B3: 2E5 (antibody, V domains shown)
VH: EVKLVESGGGLVQPGGSLKLSCATSGFTFSDYYMFWVRQTPEKRLEWVAYISEGGGSTYYPDTIKGRFTISRDNAKNTLYLQMSRLRSEDTAMYYCVRQRGAYNRYDDGRGFAYWGQGTLVTVSA
VL: DVLMTQTPLSLPVSLGDQASISCRSSQSIVHSNGNTYLEWYLQKPGQSPKLLIYKVSNRFSGVPDRLSGSGSGTDFTLKISRGEAEDLGVYYCFQGSHVPWTFGGGTKLEIK
Q: Which results are given for B3?
A: Kd (MICB): 0.807 nM; Kd (MICA): 0.599 nM

B4: D99136_2C11 [MICA/B]_H0_D99136_2C11 [MICA/B]_L0 (antibody, V domains shown)
VH: DVQLQESGPGLVKPSQSLSLTCSVTGYSITSGYNWDWIRHSPGNKLEWMGYISYDGSTNYNPSLKNRISITRDTSKNQFFLKLNSVTTEDTATYYCASSYYRYFDYWGQGTTLTVSS
VL: DVQMTQTTSSLSASLGDRVTISCSASQGISNYLNWFQQKPDGTVKLLIYYTSSLHSGVPSRFSGSGSGTDYSLTISNLEPEDIATYYCQQYTKLPWTFGGGTELEIK
Q: With B4 as the binder, how does the Kd (MICB) read?
A: 2.59 nM

Q: What about the Kd (MICA) of the same binder?
A: 17.8 nM

B5: XENP41023 (antibody)
heavy: EVQLLESGGGLVQPGGSLRLSCAVSGFSLSSYGVIWVRQAPGKGLEYVSWVSSGGSTNYASSVKGRFTISRDTSKNTVYLQMNSLRAEDTAVYFCARGATNSGTDIWGPGTLVTVSSASTKGPSVFPLAPSSKSTSGGTAALGCLVKDYFPEPVTVSWNSGALTSGVHTFPAVLQSSGLYSLSSVVTVPSSSLGTQTYICNVNHKPSDTKVDKKVEPKSCDKTHTCPPCPAPELLGGPDVFLFPPKPKDTLMISRTPEVTCVVVDVSHEDPEVKFNWYVDGVEVHNAKTKPREEEYNSTYRVVSVLTVLHQDWLNGKEYKCKVSNKALPAPIEKTISKAKGQPREPQVYTLPPSREEMTKNQVSLTCDVSGFYPSDIAVEWESDGQPENNYKTTPPVLDSDGSFFLYSKLTVDKSRWEQGDVFSCSVMHEALHNHYTQKSLSLSPGK
scFv-Fc: EVQLLESGGGLVQPGGSLRLSCAVSGFSLSSYGVIWVRQAPGKGLEYVSWVSSGGSTNYASSVKGRFTISRDTSKNTVYLQMNSLRAEDTAVYFCARGATNSGTDIWGPGTLVTVSSGKPGSGKPGSGKPGSGKPGSDIVMTQSPSSLSASVGDRVTITCRASQSINSWLSWYQQKPGKPPKLLIYGASNLASGVPSRFKGSGSGTDFTLTISSLQPEDFATYYCQNNYGIIAAGATFGGGTKVEIKEPKSSDKTHTCPPCPAPELLGGPDVFLFPPKPKDTLMISRTPEVTCVVVDVSHEDPEVKFNWYVDGVEVHNAKTKPREEQYNSTYRVVSVLTVLHQDWLNGKEYKCKVSNKALPAPIEKTISKAKGQPREPQVYTLPPSREQMTKNQVKLTCLVKGFYPSDIAVEWESNGQPENNYKTTPPVLDSDGSFFLYSKLTVDKSRWQQGNVFSCSVMHEALHNHYTQKSLSLSPGK
light: DIVMTQSPSSLSASVGDRVTITCRASQSINSWLSWYQQKPGKPPKLLIYGASNLASGVPSRFKGSGSGTDFTLTISSLQPEDFATYYCQNNYGIIAAGATFGGGTKVEIKRTVAAPSVFIFPPSDEQLKSGTASVVCLLNNFYPREAKVQWKVDNALQSGNSQESVTEQDSKDSTYSLSSTLTLSKADYEKHKVYACEVTHQGLSSPVTKSFNRGEC
Q: B5 was tested. Which Kd (CD16) did it give?
A: 102 nM

B6: 2F7 (antibody, V domains shown)
VH: QVHLKQSGAELVRPGASVKLSCKASGYTFTDYYIDWMNQRPGQGLEWIARIYPGSGNSYYNEKFKGKATLTAEKSASTAHMQLSSLTSEDSAVYFCAREGPTGVAPHWYFDVWGTGTTVTVSS
VL: DIVMSQSPSSLSSYLGDRVTISCRASQDIGNYLNWYQQKPDGTVKLLIYSTSRLHSGVPSRFSGSGSGTDYSLTISNLEQEDVATYFCQQGNTLPWTFGGGTKLEIK
Q: With B6 as the binder, how does the Kd (MICB) read?
A: 9.77 nM

Q: What about the Kd (MICA) of the same binder?
A: 42.4 nM

B7: 2E12 (antibody, V domains shown)
VH: QVQLQQSGAELVRPGTSVKVSCKASGYAFTNYLIEWVKQRPGQGLEWIGGINPGSGSTNYNEKFKGKATLTADKSSSTAYMQLSTLTFDDSAVYFCARLGGNYVDYWGQGTTLTVSS
VL: DIQMTQSPASLSASVGETVTITCRASGNIHNYLAWYQQKQGKSPQLLVYNAKTLADGVPSRFSGSGSGTQYSLKINSLQPEDFGSYYCQHFWSTPRTFGGGTKLEIK
Q: How did the Kd (MICB) turn out when B7 was run?
A: 4.68 nM

Q: And the Kd (MICA)?
A: 16.7 nM

B8: D94837_1E11_1 [MICA/B]_H0_D94837_1E11_1 [MICA/B]_L0 (antibody, V domains shown)
VH: EIQLQQSGPELVKPGASVKVSCKASGYAFTSYNMYWVKQSHGKSLEWIGYIDPYNGGTIYNQKFKGKATLTVDKSSSTAYMLLNSLTSEDSAVYYCARVGDAYPFAYWGQGTLVTVSA
VL: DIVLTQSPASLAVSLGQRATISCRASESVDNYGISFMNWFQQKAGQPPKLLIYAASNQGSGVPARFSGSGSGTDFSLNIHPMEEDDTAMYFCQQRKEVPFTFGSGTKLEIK
Q: For B8, which Kd (MICB) is on record?
A: 52.8 nM

Q: And the Kd (MICA)?
A: 40.3 nM

B9: XENP41024 (antibody)
heavy: EVQLLESGGGLVQPGGSLRLSCAVSGFSLSSYGVIWVRQAPGKGLEYVSWVSSGGSTNYASSVKGRFTISRDTSKNTVYLQMNSLRAEDTAVYFCARGATNSGTDIWGPGTLVTVSSASTKGPSVFPLAPSSKSTSGGTAALGCLVKDYFPEPVTVSWNSGALTSGVHTFPAVLQSSGLYSLSSVVTVPSSSLGTQTYICNVNHKPSDTKVDKKVEPKSCDKTHTCPPCPAPELLGGPSVFLFPPKPKDTLMISRTPEVTCVVVDVSHEDPEVKFNWYVDGVEVHNAKTKPREEEYNSTYRVVSVLTVLHQDWLNGKEYKCKVSNKALPAPEEKTISKAKGQPREPQVYTLPPSREEMTKNQVSLTCDVSGFYPSDIAVEWESDGQPENNYKTTPPVLDSDGSFFLYSKLTVDKSRWEQGDVFSCSVMHEALHNHYTQKSLSLSPGK
scFv-Fc: EVQLLESGGGLVQPGGSLRLSCAVSGFSLSSYGVIWVRQAPGKGLEYVSWVSSGGSTNYASSVKGRFTISRDTSKNTVYLQMNSLRAEDTAVYFCARGATNSGTDIWGPGTLVTVSSGKPGSGKPGSGKPGSGKPGSDIVMTQSPSSLSASVGDRVTITCRASQSINSWLSWYQQKPGKPPKLLIYGASNLASGVPSRFKGSGSGTDFTLTISSLQPEDFATYYCQNNYGIIAAGATFGGGTKVEIKEPKSSDKTHTCPPCPAPELLGGPSVFLFPPKPKDTLMISRTPEVTCVVVDVSHEDPEVKFNWYVDGVEVHNAKTKPREEQYNSTYRVVSVLTVLHQDWLNGKEYKCKVSNKALPAPEEKTISKAKGQPREPQVYTLPPSREQMTKNQVKLTCLVKGFYPSDIAVEWESNGQPENNYKTTPPVLDSDGSFFLYSKLTVDKSRWQQGNVFSCSVMHEALHNHYTQKSLSLSPGK
light: DIVMTQSPSSLSASVGDRVTITCRASQSINSWLSWYQQKPGKPPKLLIYGASNLASGVPSRFKGSGSGTDFTLTISSLQPEDFATYYCQNNYGIIAAGATFGGGTKVEIKRTVAAPSVFIFPPSDEQLKSGTASVVCLLNNFYPREAKVQWKVDNALQSGNSQESVTEQDSKDSTYSLSSTLTLSKADYEKHKVYACEVTHQGLSSPVTKSFNRGEC
Q: For B9, which Kd (CD16) is on record?
A: 120 nM

B10: 1E11-1 (antibody, V domains shown)
VH: EIQLQQSGPELVKPGASVKVSCKASGYAFTSYNMYWVKQSHGKSLEWIGYIDPYNGGTIYNQKFKGKATLTVDKSSSTAYMLLNSLTSEDSAVYYCARVGDAYPFAYWGQGTLVTVSA
VL: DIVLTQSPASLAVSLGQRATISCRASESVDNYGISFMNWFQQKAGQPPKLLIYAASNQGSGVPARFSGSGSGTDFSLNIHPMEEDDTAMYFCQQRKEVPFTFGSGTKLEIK
Q: With B10 as the binder, how does the Kd (cynoMICA) read?
A: 19.6 nM

B11: 1C7 (antibody, V domains shown)
VH: QVQLRQSGPGLGQPSQSLSITCTVFGFSLTNYGVHWVRQSPGKGLEWLGMIWNDGFTDFNAAFISRLSISKDNSKSQVFFKMNSLQPSDTAIYYCASPYFHYAMDYWGQGTSVTVSS
VL: QIVLTQSPAIMSASLGERVTMTCTASSSVSSSYLHWYQQKPGSSPKLWIYSTSNLASGVPARFSGSGSGTSYSLTISSMEAEDAATYYCHQYHRSPFTFGSGTKLEIK
Q: B11 was tested. Which Kd (cynoMICA) did it give?
A: 23.8 nM
